Laboratory results as given in IntAct's records for PubMed 11955446.

B1: Protein BCL9 homolog (Drosophila melanogaster (Fruit fly)), Q961D9 (parent)
chain: MLSTTMPRSPTQQQPQPNSDASSTSASGSNPGAAIGNGDSAASRSSPKTLNSEPFSTLSPDQIKLTPEEGTEKSGLSTSDKAATGGAPGSGNNLPEGQTMLRQNSTSTINSCLVASPQNSSEHSNSSNVSATVGLTQMVDCDEQSKKNKCSVKDEEAEISSNKAKGQAAGGGCETGSTSSLTVKEEPTDVLGSLVNMKKEERENHSPTMSPVGFGSIGNAQDNSATPVKIERISNDSTTEKKGSSLTMNNDEMSMEGCNQLNPDFINESLNNPAISSILVSGVGPIPGIGVGAGTGNLLTANANGISSGSSNCLDYMQQQNHIFVFSTQLANKGAESVLSGQFQTIIAYHCTQPATKSFLEDFFMKNPLKINKLQRHNSVGMPWIGMGQVGLTPPNPVAKITQQQPHTKTVGLLKPQFNQHENSKRSTVSAPSNSFVDQSDPMGNETELMCWEGGSSNTSRSGQNSRNHVDSISTSSESQAIKILEAAGVDLGQVTKGSDPGLTTENNIVSLQGVKVPDENLTPQQRQHREEQLAKIKKMNQFLFPENENSVGANVSSQITKIPGDLMMGMSGGGGGSIINPTMRQLHMPGNAKSELLSATSSGLSEDVMHPGDVISDMGAVIGCNNNQKTSVQCGSGVGVVTGTTAAGVNVNMHCSSSGAPNGNMMGSSTDMLASFGNTSCNVIGTAPDMSKEVLNQDSRTHSHQGGVAQMEWSKIQHQFFEERLKGGKPRQVTGTVVPQQQTPSGSGGNSLNNQVRPLQGPPPPYHSIQRSASVPIATQSPNPSSPNNLSLPSPRTTAAVMGLPTNSPSMDGTGSLSGSVPQANTSTVQAGTTTVLSANKNCFQADTPSPSNQNRSRNTGSSSVLTHNLSSNPSTPLSHLSPKEFESFGQSSAGDNMKSRRPSPQGQRSPVNSLIEANKDVRFAASSPGFNPHPHMQSNSNSALNAYKMGSTNIQMERQASAQGGSVQFSRRSDNIPLNPNSGNRPPPNKMTQNFDPISSLAQMSQQLTSCVSSMGSPAGTGGMTMMGGPGPSDINIEHGIISGLDGSGIDTINQNNCHSMNVVMNSMGPRMLNPKMCVAGGPNGPPGFNPNSPNGGLRENSIGSGCGSANSSNFQGVVPPGARMMGRMPVNFGSNFNPNIQVKASTPNTIQYMPVRAQNANNNNNNGANNVRMPPSLEFLQRYANPQMGAVGNGSPICPPSASDGTPGMPGLMAGPGAGGMLMNSSGEQHQNKITNNPGASNGINFFQNCNQMSIVDEEGGLPGHDGSMNIGQPSMIRGMRPHAMRPNVMGARMPPVNRQIQFAQSSDGIDCVGDPSSFFTNASCNSAGPHMFGSAQQANQPKTQHIKNIPSGMCQNQSGLAVAQGQIQLHGQGHAQGQSLIGPTNNNLMSTAGSVSATNGVSGINFVGPSSTDLKYAQQYHSFQQQLYATNTRSQQQQHMHQQHQSNMITMPPNLSPNPTFFVNK
partner: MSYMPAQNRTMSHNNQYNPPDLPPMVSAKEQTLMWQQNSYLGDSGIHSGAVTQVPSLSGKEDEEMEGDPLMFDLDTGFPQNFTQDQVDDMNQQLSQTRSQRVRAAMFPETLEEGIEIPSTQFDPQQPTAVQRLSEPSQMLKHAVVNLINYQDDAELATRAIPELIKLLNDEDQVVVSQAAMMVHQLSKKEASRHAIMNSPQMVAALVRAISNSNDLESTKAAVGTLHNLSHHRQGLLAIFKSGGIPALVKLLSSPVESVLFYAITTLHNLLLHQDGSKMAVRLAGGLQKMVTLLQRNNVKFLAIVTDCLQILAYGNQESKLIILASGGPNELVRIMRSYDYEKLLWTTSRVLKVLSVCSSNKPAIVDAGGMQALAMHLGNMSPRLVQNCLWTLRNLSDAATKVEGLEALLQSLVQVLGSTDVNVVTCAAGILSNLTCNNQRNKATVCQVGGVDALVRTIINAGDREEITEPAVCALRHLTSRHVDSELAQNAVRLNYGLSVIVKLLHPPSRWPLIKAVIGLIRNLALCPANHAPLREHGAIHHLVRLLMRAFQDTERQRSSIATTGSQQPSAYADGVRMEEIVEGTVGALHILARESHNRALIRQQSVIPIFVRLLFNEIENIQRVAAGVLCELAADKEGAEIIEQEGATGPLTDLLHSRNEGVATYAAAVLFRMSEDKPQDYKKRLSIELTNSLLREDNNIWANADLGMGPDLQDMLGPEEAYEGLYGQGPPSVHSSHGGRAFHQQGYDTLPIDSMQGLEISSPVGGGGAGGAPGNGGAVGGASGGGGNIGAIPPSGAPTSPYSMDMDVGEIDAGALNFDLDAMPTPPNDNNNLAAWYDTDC

Variants of: B1
Conditions: with arm_drome arm
For L534F, the “effect of a mutation on the interaction” value was “decreasing interaction”.
